Source: patent US20180021429A1, “ANTICANCER AGENTS OR ANTIMETASTATIC AGENTS USING FSTL1 AND COMBINATION DRUG THEREOF” (PHARMA FOODS INTERNATIONAL CO., LTD., priority 2015, published 2018)
Where a chain is given by its changes, count along the chain named. Values belong to the molecule of their own block, whether it stands above or below them.

Assays:
mouse FSTL1 = molecular target: T1, mouse FSTL1 (Mus musculus, UniProt Q62356); assay: ELISA binding activity of purified antibody against mouse FSTL1
T1 construct: AAA linker + 10xHis (C); made in house; host or cells: Expi293 (transient expression; purified from culture supernatant on HisPur Cobalt Resin)
T1 sequence (Q62356 with tags, fused parts or gaps): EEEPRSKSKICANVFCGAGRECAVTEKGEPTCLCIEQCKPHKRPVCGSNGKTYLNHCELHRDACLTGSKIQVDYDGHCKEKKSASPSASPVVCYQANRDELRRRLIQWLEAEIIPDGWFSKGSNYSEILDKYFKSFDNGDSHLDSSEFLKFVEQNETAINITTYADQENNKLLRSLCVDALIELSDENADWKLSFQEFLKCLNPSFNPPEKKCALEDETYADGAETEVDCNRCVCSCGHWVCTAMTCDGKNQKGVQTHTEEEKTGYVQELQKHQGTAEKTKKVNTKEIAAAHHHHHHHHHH
Method: The reactivity of the obtained antibody clones described above with FSTL1 was evaluated by ELISA under the following conditions.
(Table 2 ELISA Conditions for Binding Activity Evaluation of Purified Antibody)
Antibodies used: anti-dinitrophenyl (DNP) antibody (negative control), #5-2, #5-3, #5-8, #5-10, #5-43, #6-55, and #7-34
FIGS. 96 and 97 show results of evaluating binding activity under the condition of Table 3 as to clones differing in screening and antibody purification timings.
(Table 3 ELISA Conditions for Binding Activity Evaluation of Purified Antibody)

[1] = test system: GFP-positive and Snail-positive B16-F10 tumor cells; assay: In vivo, intratumoral administration, Snail-positive B16-F10 bone metastasis model (Example 17); parameters: species or system mouse; conditions: intratumoral 200 μg/0.1 mL/tumor on day 7; day 14
Source text: Three antibodies were comparatively analyzed for their antitumor effects and an immunosuppression-mitigating effect using bone metastasis models in which mouse melanoma cells B16-F10 forced to express Snail were subcutaneously and intravenously transplanted in C57BL/6N mice.
1. Experiment Group (n=5) • 1. No treatment • 2. Control IgG (anti-DNP) • 3. Anti-FSTL1 Clone #6-55 • 4. Anti-FSTL1 Clone #7-34 • 5. Anti-FSTL1 Clone #8-1
• Day 0: transplantation of GFP-positive and Snail-positive B16-F10 tumor cells (5×10^5 cells subcutaneously & 1×10^5 cells intravenously) • Day 7: intratumoral administration of the antibody (200 μg/0.1 mL/tumor) • Day 14: various assays (with a focus on flow cytometry analysis)
• Effects on the growth of subcutaneous tumor (calculation of tumor volume by tumor size measurement): measured 7, 11, and 14 days after tumor implantation (FIG. 41C) • Effects on bone metastasis (GFP-positive tumor cells in bone marrow) (FIG. 41A) • Effects on the expansion of mesenchymal stem cells (CD45-negative cells in bone marrow and in the spleen) (FIGS. 41B and 41D) • Effects on the expansion of immunosuppressive Treg cells (CD4-positive and Foxp3-positive cells in bone marrow or the spleen) (FIG. 41D) • Other immunosuppressive properties (FIG. 41D)
In order to evaluate in vivo antibody activity, antitumor effects and immunosuppression-mitigating effects were comparatively analyzed using bone metastasis models in which mouse melanoma cells ([…]) forced to express Snail were subcutaneously and intravenously transplanted in C57BL/6N mice. […]
It is known that when Snail-positive tumor cells are subcutaneously or intravenously transplanted to mice, the tumor metastasizes preferentially to bone marrow in addition to various organs, and this incurs the expansion of mesenchymal stem cells (MSCs) originating in the bone marrow, thereby systemically and strongly suppressing the induction of antitumor immunity (Cancer Research 73: 6185, 2013). […] The percentage (%) of CD45^− cells in the bone marrow cells was analyzed by flow cytometry. […]

[2] = ELISA Table 3 conditions, FIG. 97B

B2: #6-55: chicken-mouse chimeric anti-FSTL1 antibody clone; variable regions SEQ ID NO: 783 (light), 785 (heavy) (antibody, V domains shown)
VH: AVTLDESGGGLQTPGGALSLVCKGSGFTFTSVTMQWVRQAPGKGLEWVASVCSGSSTYYAPAVKGRATISRDNGQSTVRLQLSNLRPEDTGTYYCAKIAGRARWSCTSAAYNIDAWGHGTEVIVSS
VL: ASTQPSSVSAIPGETVKITCSGGGNNYGWYQQRSPGSAPVTVIYYNDNRPSNIPSRFSGSTSGSTSTLTITGVQADDEAIYYCGSWDSNTDSGIFGAGTTLTVL
modifications: mouse constant regions
- binding activity against mouse FSTL1 (mouse FSTL1; ELISA, FIG. 95B): specific and equivalently strong binding activity
- bone metastasis (GFP-positive tumor cells in bone marrow) [1]: suppressed

B3: #7-34: chicken-mouse chimeric anti-FSTL1 antibody clone; variable regions SEQ ID NO: 787 (light), 789 (heavy) (antibody, V domains shown)
VH: AVTLDESGGGLQTPGGGLSLVCKASGFTFSSVTMQWVRQAPGKGLEWVASICSGSSTYYGPAVKGRATISRDNGQNTVRLQLNNLRAEDTATYYCAKIVGRGRWSCTSAAYNIDAWGHGTEVIVSS
VL: B2 VL with I11N, R33K, D47N, D76E, I80V, W86Y, D87E, S88G, N89S
modifications: mouse constant regions
- bone metastasis (GFP-positive tumor cells in bone marrow) [1]: no suppressive effect was seen

Continued, in another order:

- binding activity against mouse FSTL1 (mouse FSTL1; [2]): no binding activity
B1: #8-4: chicken-mouse chimeric anti-FSTL1 antibody clone; variable regions SEQ ID NO: 795 (light), 797 (heavy) (antibody, V domains shown)
VH: AVTLDESGGGLQTPGGGLSLVCKGSGFTLSSFNMFWVRQAPGKGLEWVAGVGKDGGTAYGAAVDGRATISRDSGQSTVRLQLNNLRAEDTGTYFCAKAAGGCSYSWCGAYVGDLDAWGHGTEVIVSS
VL: ASSQPSSVSANPGETVKITCSGGSGYYYGWYQQKSPGSAPVTVIYNNDNKPSDIPSRFSGSKSGSTGTLTITGVQVEDEAVYFCGGYDNSGTGIFGAGTTLTVL
modifications: mouse constant regions

- binding activity against mouse FSTL1 (mouse FSTL1; [2]): no binding activity
B4: #5-8: chicken-mouse chimeric anti-FSTL1 antibody clone; variable regions SEQ ID NO: 771 (light), 773 (heavy) (antibody, V domains shown)
VH: AVTLDESGGGLQTPGGGLSLVCKGSGFTFSSFNMFWVRQAPGKGLEWVAGIGKDGVPKYGTAVDGRATISKDNGQSTMRLQLNNLRAEDTGTYFCAKAAGGCSYDWCGIYTGDIDTWGHGTEVIVSS
VL: ASTQPSSVSANPGEAVKITCSGGSGSYYGWYQQKSPGSAPVTVIYNNNQRPSDIPSRFSGSKSGSTATLTITGVQAEDEAVYFCGGYDSSTGHGGIFGAGTTLTVL
modifications: mouse constant regions

- binding activity against mouse FSTL1 (mouse FSTL1; [2]): very slightly exhibited binding activity
B5: #8-1: chicken-mouse chimeric anti-FSTL1 antibody clone; variable regions SEQ ID NO: 791 (light), 793 (heavy) (antibody, V domains shown)
VH: B4 VH with G17A, T61A, T111A
VL: B4 VL with T91S
modifications: mouse constant regions
- bone metastasis (GFP-positive tumor cells in bone marrow) [1]: suppressed
